The supplement of paper PMC12764529
± gives the half width of the 95% confidence interval.

Test: folding stability dG unfold from chymotrypsin proteolysis; higher = more stable
How it was run: (§1)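 Sequencing followed digestion of designed mini-proteins with trypsin and chymotrypsin, each at 11 concentrations in threefold dilutions together with a no-protease condition. The mini-proteins were under 80 residues, had no cysteine, sat in a PA-tagged cDNA display construct, and were kept only if AlphaFold2 dimer inter-PAE was above 15. From the counts, Bayesian fitting gave K50, and unfolding free energy was derived against a sequence-predicted unfolded-state K50 and a shared folded-state K50, per protease or combined.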

Compared with “SAGGSAGGSAGGMTITLVDPENGVKEAEIEEVDGKLRITVVNEETGEKEEIELPLEELLSAGGSAGGSAGGS [r10_772_TrROS_Hall]”, “SAGGSAGGMKIIKYDKKTKKVLIYYDEETKEWYVRNKNGKIYKFKSVEEALKKLPVKVEIVKVPSAGGSAGG [r6_752_TrROS_Hall]” is higher in “folding stability dG unfold” value: 0.288 ± 0.14 kcal/mol for the first, 1.6 ± 0.14 kcal/mol for the second.

First: SAGGSAGGSAGAAPDGETVRITAVFVNPETQEVFVVEATINPDGELTMEVKEVFKLPEGLSAGGSAGGSAGG [r11_226_TrROS_Hall]
Second: SAGGMRIYIPPELPEEKVEEIREEAEEEFPVEVTLERFPEPGYVVLEFEGEEEELYRRIEEKIREKGSAGGS [r16_227_TrMRF]
The “folding stability dG unfold” value of the first is higher: 2.782 ± 0.017 kcal/mol for the first, 1.42 ± 0.35 kcal/mol for the second.

Compared with “SAGGSAGGSAGMVLLKSEEEAEELRKPNVSLSVTPVPPVEVSEGDPNALAYEVELKPPLESAGGSAGGSAGG [r11_168_JUSTAS]”, “SAGGSAGGSALEIPFEVVDEKDFLLEGDYIVRVAELKNGLRALAIYDPKTGKVLVIVSPGGSAGGSAGGSAG [r3_438_TrMRF]” is higher in “folding stability dG unfold” value: 0.0585 ± 0.17 kcal/mol for the first, 2.07 ± 0.057 kcal/mol for the second.

Compared with “SAGGSTITTDVPEARELLEELVKAGIKNIKVTVELDGSTVTLEVPPDELEKLVEEIPPEAKVTLEASSAGGS [r16_636_JUSTAS]”, “SAGGSAGGSAGKTIVLKTPEAIKNLKEGDVIKLKDGKKYKIVKVEYDKETNYFTIEIEKESAGGSAGGSAGG [r11_316_TrROS_Hall]” is higher in “folding stability dG unfold” value: 1.44 ± 0.041 kcal/mol for the first, 3.75 ± 0.17 kcal/mol for the second.

First: SAGGMVEVTYDPETGTLTILLPSPSGTLGPEAVEAAARLIRELYPEAEVEVEPLPDNTVRLRVRFPGGSAGG [r13_291_TrMRF]
Second: SAGGSAGGSAKVKAEIEYDPATGKITIKLITEDERGGKTEEAEITIPIPIPAPPAPPADVDKSAGGSAGGSA [r18_361_TrMRF]
The “folding stability dG unfold” value of the first is higher: 5.38 ± 0.23 kcal/mol for the first, 1.69 ± 0.15 kcal/mol for the second.

Going from “SAGGSAGGSAGGGMAYTVETEVTLTPDGTRVVRTTVTIEDTEVEETHVTPVAPAAPEGLSAGGSAGGSAGGS [r10_898_JUSTAS]” to “SAGGSAGGSAGGGITIKGPGSVTVTVPASDVASISVDPATGTVTVEIPATGTTLTVPPASAGGSAGGSAGGS [r10_200_JUSTAS]”, the “folding stability dG unfold” value rises from -0.079 ± 0.06 kcal/mol to 0.238 ± 0.033 kcal/mol.

Going from “SMKITLEKGNYKIEIYKHPETGEIIAKVYDKNGKLVAVAHIKIEVEPDKDGKKIIKKIEIHVHILKEDPKSA [r9_262_TrMRF]” to “SAGGSAGGSAGGKDGYYKAIIELPGGEKREIVFKYEDFEEALKSLGIPLENVKIVKIEEGSAGGSAGGSAGG [r7_211_TrMRF]”, the “folding stability dG unfold” value falls from 3.77 ± 0.11 kcal/mol to 3.49 ± 0.11 kcal/mol.

Compared with “SAGGSAMKLTLKDKKGNTLFLEVEEKTSEDGTPYYEVKIYYPNTNKVEYAEVPVENLEEFAKKLADSAGGSA [r15_92_TrMRF]”, “SAGGSAGGSAGPPNKPVYVRVRIQMPNGKKKTFWFKDVEQIEKNLKEEFGIRDIEIEPIKSAGGSAGGSAGG [r17_508_TrROS]” is lower in “folding stability dG unfold” value: 3.31 ± 0.086 kcal/mol for the first, 1.71 ± 0.026 kcal/mol for the second.

Test: folding stability dG unfold (combined trypsin and chymotrypsin); higher = more stable
How it was run: as §1

Going from “SAGGSAGGSAGGGNLALPPRYRITVRIEKDGSTSTVEFDSEEELAALDDPGLTVTEVREESAGGSAGGSAGG [r7_793_JUSTAS]” to “SAGGSAGGSAGGKTLTLEIEINGKLYKIEFSGDSIKITEIKVKPKPKKKEFFSEEELKKKSAGGSAGGSAGG [r7_748_TrROS_Hall]”, the “folding stability dG unfold” value rises from 0.745 ± 0.11 kcal/mol to 1.87 ± 0.31 kcal/mol.

Going from “SAGPTIMIPMPPKESLEEAVEKAIEWIREFFPDNLKPGKKIKIFVHVWDPDNGKQYWVTIEIPIPKGELSAG [r5_916_TrROS]” to “SAGGSAGGSAGGAPDLSLPDVRPRVLVRNPATGKWYEFTSLEELEREIKSGRAEVLEISSAGGSAGGSAGGS [r10_520_TrMRF]”, the “folding stability dG unfold” value falls from 3.19 ± 0.25 kcal/mol to 0.573 ± 0.16 kcal/mol.

First: SAGGSAGGSAGGGSTTTTTETYPENGLIFTTTTTVFDDGSLSVTTTTSPLPLPPSPFIATSAGGSAGGSAGG [r7_103_JUSTAS]
Second: SAGGEFEVYRVKSPDSVVTVTVLPDRVVVNLTDEKNPKVVPIPYPPGHPPTLEDVLALLKSLGFKVEPSAGG [r13_687_TrMRF]
The “folding stability dG unfold” value of the first is lower: 1.05 ± 0.18 kcal/mol for the first, 1.79 ± 0.041 kcal/mol for the second.

“SAGGKWKPIGKFEFTLPDGVKVTVTVEENPPLELKITAEVEIYVPPPKPPVPPLGPEEVKKWLEENKSAGGS [r16_6_TrMRF]” and “SAGGSAKITLWIWMPPGNPDKMAEEIADYLAERHGWTVKIKDVQIERDPEDDQVWIPVKIEIQPPPSAGGSA [r15_70_TrROS]” are within error of each other in “folding stability dG unfold” value: 1.8 ± 0.2 kcal/mol for the first, 1.91 ± 0.39 kcal/mol for the second.

Compared with “NWYIDIDEIKEAINDAPPGDEVELPFKFYDPDDGQKFKFRVTVEVNPNGKLTSVRIQHPGSGKPHAEINLKS [r1_165_TrROS]”, “SAGGSAGGSAGGGMTITTTSSVSESDGGLTLSTTTTAFDPVTGTWTPLTTTTTTLPPTTSAGGSAGGSAGGS [r10_51_JUSTAS]” is higher in “folding stability dG unfold” value: 0.982 ± 0.11 kcal/mol for the first, 1.24 ± 0.053 kcal/mol for the second.

Going from “SAGGSAGGSAKKIVIKVKPGMTEEEILEEIAKKLGLKPEKIKKIEIERNKDGYLYVTIEIESAGGSAGGSAG [r3_26_TrROS_Hall]” to “SAGGSAGGSAGGTLEFTFPGEGNLLAKVRIDLGESGNVRIDVYIYDGDTLLAKATFTLNLSAGGSAGGSAGG [r7_79_TrMRF]”, the “folding stability dG unfold” value rises from 3.82 ± 0.083 kcal/mol to 5.48 ± 0.13 kcal/mol.

Compared with “SAGGSAGGSAGMIVIKNPETKEYYVIKFDGKEYVIELSEDELKELLEKLKGKDVEIKKLPSAGGSAGGSAGG [r11_57_TrROS_Hall]”, “SAGGSARVIRNPDYGMWIRLQPTDGGYTVQIEMYRPDPEDGKPKRRPMTHTIPPDDLPPEIRDLLKSAGGSA [r15_703_TrROS]” is lower in “folding stability dG unfold” value: 1.96 ± 0.2 kcal/mol for the first, 0.573 ± 0.07 kcal/mol for the second.

First: SAGGSAEKVEIKVTYDKETGKVTVEIRVEVDLSEEQLKKLKELAEELGLEVEVTVEVRYEPPPPKESAGGSA [r15_542_TrROS_Hall]
Second: SAGGSAGGSAGGMTITLVDPENGVKEAEIEEVDGKLRITVVNEETGEKEEIELPLEELLSAGGSAGGSAGGS [r10_772_TrROS_Hall]
The “folding stability dG unfold” value of the first is higher: 2.27 ± 0.49 kcal/mol for the first, 0.477 ± 0.16 kcal/mol for the second.

Going from “SAGGSAGGMKIIKYDKKTKKVLIYYDEETKEWYVRNKNGKIYKFKSVEEALKKLPVKVEIVKVPSAGGSAGG [r6_752_TrROS_Hall]” to “SAGGSAGGSAGAAPDGETVRITAVFVNPETQEVFVVEATINPDGELTMEVKEVFKLPEGLSAGGSAGGSAGG [r11_226_TrROS_Hall]”, the “folding stability dG unfold” value rises from 1.67 ± 0.089 kcal/mol to 2.36 ± 0.068 kcal/mol.

Going from “SAGGMRIYIPPELPEEKVEEIREEAEEEFPVEVTLERFPEPGYVVLEFEGEEEELYRRIEEKIREKGSAGGS [r16_227_TrMRF]” to “SAGGSAGGSAGMVLLKSEEEAEELRKPNVSLSVTPVPPVEVSEGDPNALAYEVELKPPLESAGGSAGGSAGG [r11_168_JUSTAS]”, the “folding stability dG unfold” value falls from 1.55 ± 0.41 kcal/mol to 0.86 ± 0.11 kcal/mol.

First: SAGGSAGGSALEIPFEVVDEKDFLLEGDYIVRVAELKNGLRALAIYDPKTGKVLVIVSPGGSAGGSAGGSAG [r3_438_TrMRF]
Second: SAGGSTITTDVPEARELLEELVKAGIKNIKVTVELDGSTVTLEVPPDELEKLVEEIPPEAKVTLEASSAGGS [r16_636_JUSTAS]
The “folding stability dG unfold” value of the first is higher: 2.17 ± 0.17 kcal/mol for the first, 1.12 ± 0.062 kcal/mol for the second.

First: SAGGSAGGSAGKTIVLKTPEAIKNLKEGDVIKLKDGKKYKIVKVEYDKETNYFTIEIEKESAGGSAGGSAGG [r11_316_TrROS_Hall]
Second: SAGGMVEVTYDPETGTLTILLPSPSGTLGPEAVEAAARLIRELYPEAEVEVEPLPDNTVRLRVRFPGGSAGG [r13_291_TrMRF]
The “folding stability dG unfold” value of the first is lower: 3.54 ± 0.17 kcal/mol for the first, 4.96 ± 0.14 kcal/mol for the second.

Compared with “SAGGSAGGSAKVKAEIEYDPATGKITIKLITEDERGGKTEEAEITIPIPIPAPPAPPADVDKSAGGSAGGSA [r18_361_TrMRF]”, “SAGGSAGGSAGGGMAYTVETEVTLTPDGTRVVRTTVTIEDTEVEETHVTPVAPAAPEGLSAGGSAGGSAGGS [r10_898_JUSTAS]” is lower in “folding stability dG unfold” value: 1.27 ± 0.12 kcal/mol for the first, -0.231 ± 0.081 kcal/mol for the second.

Compared with “SAGGSAGGSAGGGITIKGPGSVTVTVPASDVASISVDPATGTVTVEIPATGTTLTVPPASAGGSAGGSAGGS [r10_200_JUSTAS]”, “SMKITLEKGNYKIEIYKHPETGEIIAKVYDKNGKLVAVAHIKIEVEPDKDGKKIIKKIEIHVHILKEDPKSA [r9_262_TrMRF]” is higher in “folding stability dG unfold” value: 0.604 ± 0.07 kcal/mol for the first, 3.02 ± 0.31 kcal/mol for the second.

“SAGGSAGGSAGGKDGYYKAIIELPGGEKREIVFKYEDFEEALKSLGIPLENVKIVKIEEGSAGGSAGGSAGG [r7_211_TrMRF]” and “SAGGSAMKLTLKDKKGNTLFLEVEEKTSEDGTPYYEVKIYYPNTNKVEYAEVPVENLEEFAKKLADSAGGSA [r15_92_TrMRF]” are within error of each other in “folding stability dG unfold” value: 3.48 ± 0.18 kcal/mol for the first, 3.25 ± 0.18 kcal/mol for the second.

With “SAGGSAGGSAGPPNKPVYVRVRIQMPNGKKKTFWFKDVEQIEKNLKEEFGIRDIEIEPIKSAGGSAGGSAGG [r17_508_TrROS]” the “folding stability dG unfold” value was 1.67 ± 0.046 kcal/mol.
